# Reference: paper PMC7679444 (2020)
# B1: GST-HA-ATG16L1(231–607) [human] / TMEM59 peptide (residues 268–280), wild type [modified: long spacer (Tds) at the N-terminal end, used for immobilisation; long spacer (Tds) at the N-terminal end, used for immobilisation] [not stated] (parent complex)
# chain 1: PLPVEQDDDIEVIVDETSDHTEETSPVRAISRAATKRLSQPAGGLLDSITNIFGRRSVSSFPVPQDNVDTHPGSGKEVRVPATALCVFDAHDGEVNAVQFSPGSRLLATGGMDRRVKLWEVFGEKCEFKGSLSGSNAGITSIEFDSAGSYLLAASNDFASRIWTVDDYRLRHTLTGHSGKVLSAKFLLDNARIVSGSHDRTLKLWDLRSKVCIKTVFAGSSCNDIVCTEQCVMSGHFDKKIRFWDIRSESIVREMELLGKITALDLNPERTELLSCSRDDLLKVIDLRTNAIKQTFSAPGFKCGSDWTRVVFSPDGSYVAAGSAEGSLYIWSVLTGKVEKVLSKQHSSSINAVAWSPSGSHVVSVDKGCKAVLWAQY
# chain 2: YVPSEKLSIYGDL
# Variants of: B1
# Assay: peptide microarray; 800, 400 nM (n = 6); parent: 100; read off a plot
row,percent of parent [% WT],Variant
1,~1,"chain 2 Y1A, chain 2 E5A, chain 2 Y10A, chain 2 L13A"
